What was measured:
Test in all cases: cell-based or functional assay
[1] = molecular target: HIV-1 Env of isolate MGRM-Chronic-B-008 (subtype B) (HIV-1)
[2] = molecular target: HIV-1 Env of isolate THR0.18 (subtype B) (HIV-1)
[3] = molecular target: HIV-1 Env of isolate SC422661.8 (subtype B) (HIV-1)
[4] = molecular target: HIV-1 Env of isolate JRCSF (subtype B) (HIV-1) (UniProt P20871)
[5] = molecular target: HIV-1 Env of isolate NL43 (subtype B) (HIV-1)
[6] = molecular target: HIV-1 Env of isolate MG RM-C-025 (subtype C) (HIV-1)
[7] = molecular target: HIV-1 Env of isolate MGRM-Chronic-B-010 (subtype B) (HIV-1)
[8] = molecular target: HIV-1 Env of isolate TRJ04551.58 (subtype B) (HIV-1)
[9] = molecular target: HIV-1 Env of isolate 92 BR 020 (subtype B) (HIV-1)
[10] = molecular target: HIV-1 Env of isolate MG RM-C-019 (subtype C) (HIV-1)
[11] = molecular target: HIV-1 Env of isolate MGRM-Chronic-B-004 (subtype B) (HIV-1)
[12] = molecular target: HIV-1 Env of isolate MG RM-C-028 (subtype C) (HIV-1)
[13] = molecular target: HIV-1 Env of isolate MGRM-Chronic-B-017 (subtype B) (HIV-1)
[14] = molecular target: HIV-1 Env of isolate APV_6 (subtype B) (HIV-1)
[15] = molecular target: HIV-1 Env of isolate MG RM-C-022 (subtype C) (HIV-1)
[16] = molecular target: HIV-1 Env of isolate VLGCB3 (subtype B) (HIV-1)
[17] = molecular target: HIV-1 Env of isolate 93TH305 (subtype B) (HIV-1)
[18] = molecular target: HIV-1 Env of isolate MGRM-Chronic-B-001 (subtype B) (HIV-1)
[19] = molecular target: HIV-1 92RW008 Env (HIV-1)
[20] = molecular target: HIV-1 Env of isolate MG RM-C-027 (subtype C) (HIV-1)
[21] = molecular target: HIV-1 Env of isolate 98IN022 (subtype C) (HIV-1)
[22] = molecular target: HIV-1 Env of isolate MGRM-Chronic-B-003 (subtype B) (HIV-1)
[23] = molecular target: HIV-1 Env of isolate 93MW959 (subtype C) (HIV-1)
[24] = molecular target: HIV-1 Env of isolate 6535.3 (subtype B) (HIV-1)
[25] = molecular target: HIV-1 Env of isolate APV_13 (subtype B) (HIV-1)
[26] = molecular target: HIV-1 Env of isolate MGRM-Chronic-B-011 (subtype B) (HIV-1)
[27] = molecular target: HIV-1 Env of isolate PVO.4 (subtype B) (HIV-1)
[28] = molecular target: HIV-1 Env of isolate CAAN.A2 (subtype B) (HIV-1)
[29] = molecular target: HIV-1 Env of isolate 97ZA012 (subtype C) (HIV-1)
[30] = molecular target: HIV-1 Env of isolate MG RM-C-023 (subtype C) (HIV-1)
[31] = molecular target: HIV-1 Env of isolate MG RM-C-020 (subtype C) (HIV-1)
[32] = molecular target: HIV-1 Env of isolate MGRM-Chronic-B-020 (subtype B) (HIV-1)
[33] = molecular target: HIV-1 Env of isolate MGRM-Chronic-B-012 (subtype B) (HIV-1)
[34] = molecular target: HIV-1 Env of isolate MG RM-C-024 (subtype C) (HIV-1)
[35] = molecular target: HIV-1 Env of isolate MGRM-Chronic-B-018 (subtype B) (HIV-1)
[36] = molecular target: HIV-1 Env of isolate QH0692.42 (subtype B) (HIV-1)
[37] = molecular target: HIV-1 Env of isolate APV_17 (subtype B) (HIV-1)
[38] = molecular target: HIV-1 Env of isolate MG RM-C-026 (subtype C) (HIV-1)
[39] = molecular target: HIV-1 Env of isolate MGRM-Chronic-B-023 (subtype B) (HIV-1)
[40] = molecular target: HIV-1 Env of isolate TRO.11 (subtype B) (HIV-1)
[41] = molecular target: HIV-1 Env of isolate MGRM-Chronic-B-002 (subtype B) (HIV-1)
[42] = molecular target: HIV-1 Env of isolate JRFL (subtype B) (HIV-1)
[43] = molecular target: HIV-1 Env of isolate MGRM-Chronic-B-024 (subtype B) (HIV-1)
[44] = molecular target: HIV-1 Env of isolate 93IN905 (subtype C) (HIV-1)
[45] = molecular target: HIV-1 Env of isolate SF162 (subtype B) (HIV-1) (UniProt P19550)

Chain of 4995_P16 (PGT-145) (antibody) (VH): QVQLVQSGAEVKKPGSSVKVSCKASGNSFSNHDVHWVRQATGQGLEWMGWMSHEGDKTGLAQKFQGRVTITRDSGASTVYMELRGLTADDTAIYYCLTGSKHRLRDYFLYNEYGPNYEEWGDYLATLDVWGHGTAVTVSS
Chain of 4995_P16 (PGT-145) (antibody) (VL): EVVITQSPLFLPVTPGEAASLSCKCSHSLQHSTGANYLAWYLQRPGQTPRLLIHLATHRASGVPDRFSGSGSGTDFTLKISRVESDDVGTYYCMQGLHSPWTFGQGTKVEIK
Chain of 4980_N08 (PGT-143) (antibody) (VH): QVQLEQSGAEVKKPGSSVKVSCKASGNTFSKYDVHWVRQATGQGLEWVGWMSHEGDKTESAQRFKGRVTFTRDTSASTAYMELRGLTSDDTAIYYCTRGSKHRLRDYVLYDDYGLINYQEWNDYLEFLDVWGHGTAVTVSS
Chain of 4980_N08 (PGT-143) (antibody) (VL): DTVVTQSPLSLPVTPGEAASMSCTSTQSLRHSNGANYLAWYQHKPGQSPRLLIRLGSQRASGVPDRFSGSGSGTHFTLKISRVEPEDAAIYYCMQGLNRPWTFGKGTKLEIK

In the case of 4980_N08 (PGT-143) (antibody), the IC50 [1] is reported as greater than 50 µg/mL, the IC50 [2] is reported as 0.016 µg/mL and the IC50 [3] is reported as 2.02 µg/mL. For the same substance, the IC50 [4] was 0.007 µg/mL, the IC50 [5] was greater than 50 µg/mL and the IC50 [6] was 0.336 µg/mL. For the same substance, the IC50 [7] was greater than 50 µg/mL, the IC50 [8] was greater than 50 µg/mL and the IC50 [9] was 25.9 µg/mL. It also gave an IC50 [10] of 0.004 µg/mL, an IC50 [11] of 0.395 µg/mL and an IC50 [12] of 12.4 µg/mL. For the same substance, the IC50 [13] was 0.145 µg/mL, the IC50 [14] was 14 µg/mL and the IC50 [15] was 0.103 µg/mL. The IC50 [16] was greater than 50 µg/mL, the IC50 [17] was 17.3 µg/mL and the IC50 [18] was greater than 50 µg/mL. The IC50 [19] was 0.385 µg/mL, the IC50 [20] was 0.598 µg/mL and the IC50 [21] was 0.001 µg/mL. For the same substance, the IC50 [22] was 0.854 µg/mL, the IC50 [23] was 0.002 µg/mL and the IC50 [24] was greater than 50 µg/mL. For the same substance, the IC50 [25] was greater than 50 µg/mL, the IC50 [26] was 1.56 µg/mL and the IC50 [27] was 0.162 µg/mL. It also gave an IC50 [28] greater than 50 µg/mL, an IC50 [29] greater than 50 µg/mL and an IC50 [30] of 0.148 µg/mL. For the same substance, the IC50 [31] was 0.797 µg/mL, the IC50 [32] was greater than 50 µg/mL and the IC50 [33] was greater than 50 µg/mL. The IC50 [34] was 0.05 µg/mL, the IC50 [35] was 0.377 µg/mL and the IC50 [36] was greater than 50 µg/mL. It also gave an IC50 [37] of 1.11 µg/mL, an IC50 [38] greater than 50 µg/mL and an IC50 [39] of 0.236 µg/mL. It also gave an IC50 [40] of 0.219 µg/mL, an IC50 [41] greater than 50 µg/mL and an IC50 [42] greater than 50 µg/mL. The IC50 [43] was 0.01 µg/mL, the IC50 [44] was 0.002 µg/mL and the IC50 [45] was greater than 50 µg/mL.
4995_P16 (PGT-145) (antibody) gave an IC50 [1] of 1.9 µg/mL, an IC50 [2] of 0.013 µg/mL and an IC50 [3] of 0.079 µg/mL. The IC50 [4] was 0.002 µg/mL, the IC50 [5] was 0.006 µg/mL and the IC50 [6] was 0.044 µg/mL. For the same substance, the IC50 [7] was greater than 50 µg/mL, the IC50 [8] was greater than 50 µg/mL and the IC50 [9] was 1.05 µg/mL. For the same substance, the IC50 [10] was 0.005 µg/mL, the IC50 [11] was 0.023 µg/mL and the IC50 [12] was 0.099 µg/mL. The IC50 [13] was 0.054 µg/mL, the IC50 [14] was 0.104 µg/mL and the IC50 [15] was 0.492 µg/mL. The IC50 [16] was greater than 50 µg/mL, the IC50 [17] was 0.032 µg/mL and the IC50 [18] was 3.22 µg/mL. It also gave an IC50 [19] of 0.4 µg/mL, an IC50 [20] of 0.095 µg/mL and an IC50 [21] of 0.005 µg/mL. The IC50 [22] was 0.045 µg/mL, the IC50 [23] was 1.2 µg/mL and the IC50 [24] was greater than 50 µg/mL. It also gave an IC50 [25] of 0.337 µg/mL, an IC50 [26] of 0.206 µg/mL and an IC50 [27] of 0.299 µg/mL. It also gave an IC50 [28] of 7.08 µg/mL, an IC50 [29] of 0.915 µg/mL and an IC50 [30] of 0.201 µg/mL. It also gave an IC50 [31] of 0.712 µg/mL, an IC50 [32] greater than 50 µg/mL and an IC50 [33] of 9.06 µg/mL. The IC50 [34] was 0.174 µg/mL, the IC50 [35] was 0.013 µg/mL and the IC50 [36] was greater than 50 µg/mL. It also gave an IC50 [37] of 0.488 µg/mL, an IC50 [38] greater than 50 µg/mL and an IC50 [39] of 0.009 µg/mL. It also gave an IC50 [40] of 0.044 µg/mL, an IC50 [41] of 3.67 µg/mL and an IC50 [42] of 30.4 µg/mL. It also gave an IC50 [43] of 0.018 µg/mL, an IC50 [44] of 0.002 µg/mL and an IC50 [45] greater than 50 µg/mL.
